Patent publication US7157259B2, “Murine lecithin-cholesterol acyltransferase protein” (Takeda Pharmaceutical Company Limited, priority 1997, dated 2007)
One block for each molecule: values may come before it.

How the values were obtained:
[1] = target: T1, human LCAT-like protein/FLAG fusion protein (Homo sapiens, UniProt Q8NCC3); test: Influence of DFP and DTNB on esterase activity assayed with PNPB; format: biochemical; settings: inhibitor pre-incubated 25° C. for 1 hour before substrate; PNPB 500 μM; fusion protein 3.4 μg/ml; FIG. 18
T1 construct: made in house; host or cells: baculovirus (Bac-To-Bac); secreted into the culture supernatant
T1 sequence (Q8NCC3 34-412): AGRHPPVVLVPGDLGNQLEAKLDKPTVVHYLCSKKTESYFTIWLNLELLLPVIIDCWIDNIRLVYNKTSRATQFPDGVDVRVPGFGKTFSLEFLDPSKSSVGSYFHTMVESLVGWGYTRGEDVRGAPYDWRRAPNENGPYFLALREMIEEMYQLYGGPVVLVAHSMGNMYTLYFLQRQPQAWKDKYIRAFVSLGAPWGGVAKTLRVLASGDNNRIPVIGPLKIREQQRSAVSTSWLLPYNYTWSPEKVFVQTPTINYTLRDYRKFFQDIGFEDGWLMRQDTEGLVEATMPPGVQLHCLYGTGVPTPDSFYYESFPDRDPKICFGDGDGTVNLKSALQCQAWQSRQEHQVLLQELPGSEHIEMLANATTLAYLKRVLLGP

[2] = Esterase activity assay using the fatty acid ester p-nitrophenyl butyrate (PNPB); format: biochemical
Description: Assays were carried out in accordance with the method of Bonelli, F. S. and Jonas, A. [Journal of Biological Chemistry, 264, 14723–14728, 1989]. Thus, to the reaction buffer (10 mM Tris, pH 7.4, 150 mM NaCl, 0.01% EDTA, 1 mM NaN3) was added a graded solution of p-nitrophenyl butyrate (PNPB) in acetonitrile (final concentration:5 mM–50 μM) as the substrate. Then, the human LCAT-like protein/FLAG fusion protein obtained in Example 9 was added (final concentration:3.4 μg/ml) to make 1 ml. The mixture was incubated at 37° C. for 20 minutes and the absorbance at 400 nm was measured at 2-minute intervals. From the percent changes in absorbance at the respective substrate concentrations, initial velocity was calculated, and according to the Lineweaver-Burk method, Vmax and Km were calculated (FIG. 16). […] Using 50 μl of the semi-purified enzyme solution of fractions 6 and 7 (4 ml) obtained in Example 12 (FIG. 14), a similar activity assay was carried out at a substrate concentration of 100 μM.

[3] = PNPB 5 mM–50 μM, protein 3.4 μg/ml, 37° C., compared with human plasma LCAT, FIG. 16

- inhibition of esterase activity [1]: inhibited
Molecule: O=C(O)c1cc(SSc2ccc([N+](=O)[O-])c(C(=O)O)c2)ccc1[N+](=O)[O-] [DTNB, 5,5′-dithiobis(2-nitrobenzoic acid)]

B1: human LCAT-like protein/FLAG fusion protein: human LCAT-like protein with FLAG peptide fused at C-terminus, expressed in insect cells, purified on anti-FLAG M2 affinity column (protein)
chain: T1 sequence (Q8NCC3 34-412)
modifications: left off: small tags and cut ends
- Km (Lineweaver-Burk) [2, 3]: agreed with the values of human plasma LCAT on an order basis
- Vmax (Lineweaver-Burk) [2, 3]: agreed with the values of human plasma LCAT on an order basis

B2: human LCAT-like protein: recombinant human LCAT-like protein expressed in High Five insect cells, semi-purified on Phenyl-Sepharose HP (fractions 6 and 7) (protein, UniProt Q8NCC3 34-412, looked up)
Lysosomal phospholipase A and …: T1 sequence (Q8NCC3 34-412)
- esterase activity ([2]; 50 μl semi-purified enzyme solution of fractions 6 and 7 of Example 12, PNPB 100 μM, FIG. 17): confirmed to have esterase activity
